{"source": "paper PMC12824264", "about": "(2025)", "binders": {"B1": {"name": "sENG(D):BMP9 complex (complex)", "chain 1": "ETVHCDLQPVGPERGEVTYTTSQVSKGCVAQAPNAILEVHVLFLEFPTGPSQLELTLQASKQNGTWPREVLLVLSVNSSVFLHLQALGIPLHLAYNSSLVTFQEPPGVNTTELPSFPKTQILEWAAERGPITSAAELNDPQSILLRLGQAQGSLSFCMLEASQDMGRTLEWRPRTPALVRGCHLEGVAGHKEAHILRVLPGHSAGPRTVTVKVELSCAPGDLDAVLILQGPPYVSWLIDANHNMQIWTTGEYSFKIFPEKNIRGFKLPDTPQGLLGEARMLNASIVASFVELPLASIVSLHASSCGGRLQTSPAPIQTTPPKDTCSPELLMSLIQTKCADDAMTLVLKKELVAHLKCTITGLTFWDPSCEAEDRGDKFVLRSAYSSCGMQVSASMISNEAVVNILSSSSPQRKKVHCLNMDSLSFQLGLYLSPHFLQASNTIEPGQQSFVQVRVSPSVSEFLLQLDSCHLDLGPEGGTVELIQGRAAKGNCVSLLSPSPEGDPRFSFLLHFYTVPIPKTGTLSCTVALRPKTGSQDQEVHRTVFMRLNIISPDLSGCTSKG", "chain 2": "SAGAGSHCQKTSLRVNFEDIGWDSWIIAPKEYEAYECKGGCFFPLADDVTPTKHAIVQTLVHLKFPTKVGKACCVPTKLSPISVLYKDDMGVPTLKYHYEGMSVAECGCR"}, "B2": {"name": "BMP10 growth factor domain (GFD) dimer (ligand)", "chain": "NAKGNYCKRTPLYIDFKEIGWDSWIIAPPGYEAYECRGVCNYPLAEHLTPTKHAIIQALVHLKNSQKASKACCVPTKLEPISILYLDKGVVTYKFKYEGMAVSECGCR"}, "B3": {"name": "sENG(M):BMP10 complex (complex)", "chain 1": "B1 chain 1", "chain 2": "B2 chain"}, "B4": {"name": "sENG(D):BMP10 complex (complex)", "chain 1": "B1 chain 1", "chain 2": "B2 chain"}, "B5": {"name": "BMP9 growth factor domain (GFD) dimer (ligand)", "chain": "B1 chain 2"}, "B6": {"name": "sENG(M):BMP9 complex (complex)", "chain 1": "B1 chain 1", "chain 2": "B1 chain 2"}}, "key": {"ALK1-Fc [1]": {"target": "T1, ALK1-Fc (UniProt P37023 22-118)", "test": "SPR"}, "ALK1-Fc [2]": {"target": "T1, ALK1-Fc", "test": "SPR", "remark": "listed apart in the source"}}, "data": [{"binder": "B1", "values": [{"measurement": "Kd", "setting": "ALK1-Fc [1]", "result": 0.422, "unit": "nM"}, {"measurement": "koff", "setting": "ALK1-Fc [2]", "result": 0.000236, "unit": "s⁻¹"}]}, {"binder": "B2", "values": [{"measurement": "koff", "setting": "ALK1-Fc [2]", "result": 0.000169, "unit": "s⁻¹"}]}, {"binder": "B3", "values": [{"measurement": "Kd", "setting": "ALK1-Fc [1]", "result": 1.68, "unit": "nM"}, {"measurement": "koff", "setting": "ALK1-Fc [2]", "result": 0.00017, "unit": "s⁻¹"}]}, {"binder": "B4", "values": [{"measurement": "Kd", "setting": "ALK1-Fc [1]", "result": 2.97, "unit": "nM"}, {"measurement": "koff", "setting": "ALK1-Fc [2]", "result": 0.000329, "unit": "s⁻¹"}]}, {"binder": "B5", "values": [{"measurement": "koff", "setting": "ALK1-Fc [2]", "result": 0.000162, "unit": "s⁻¹"}]}, {"binder": "B6", "values": [{"measurement": "Kd", "setting": "ALK1-Fc [1]", "result": 0.179, "unit": "nM"}, {"measurement": "koff", "setting": "ALK1-Fc [2]", "result": 0.000124, "unit": "s⁻¹"}]}]}
